Test results as given in patent publication US20230357716A1.

Target: CD38 (UniProt P28907)
Assay: cell-based or functional assay

daratumumab (antibody) showed a reduction in detectable CD38+ pbNK cell counts against the control condition of 21 fold.
